Measured values: paper PMC3325275, “Molecular Mechanism Underlying the Interaction of Typical Sac10b Family Proteins with DNA” (PLoS ONE, 2012)
Positions count from the first letter of the chain named.

Key:
[1] = system: Mth10b N11KI39RT77R (Methanobacterium thermoautotrophicum ΔH); experiment: SPR; conditions: SPR (BIAcore 3000, SA chip): 20 mM Tris, 1 mM EDTA, 0.005% Tween20, pH 7.5, with 0, 0.1 or 0.3 M NaCl, 25°C
[2] = system: Mth10b I39R (Methanobacterium thermoautotrophicum ΔH); experiment: SPR; conditions: SPR (BIAcore 3000, SA chip): 20 mM Tris, 1 mM EDTA, 0.005% Tween20, pH 7.5, with 0, 0.1 or 0.3 M NaCl, 25°C
[3] = system: Mth10b N11K (Methanobacterium thermoautotrophicum ΔH); experiment: SPR; conditions: SPR (BIAcore 3000, SA chip): 20 mM Tris, 1 mM EDTA, 0.005% Tween20, pH 7.5, with 0, 0.1 or 0.3 M NaCl, 25°C
[4] = system: Mth10b T77R (Methanobacterium thermoautotrophicum ΔH); experiment: SPR; conditions: no NaCl; apparent KD; SPR (BIAcore 3000, SA chip): 20 mM Tris, 1 mM EDTA, 0.005% Tween20, pH 7.5, with 0, 0.1 or 0.3 M NaCl, 25°C
[5] = molecular target: T1, Mth10b N11KI39RT77R N11K;I39R;T77R (Methanobacterium thermoautotrophicum ΔH) (UniProt O27527); experiment: SPR; conditions: SPR (BIAcore 3000, SA chip): 20 mM Tris, 1 mM EDTA, 0.005% Tween20, pH 7.5, with 0, 0.1 or 0.3 M NaCl, 25°C
T1 sequence: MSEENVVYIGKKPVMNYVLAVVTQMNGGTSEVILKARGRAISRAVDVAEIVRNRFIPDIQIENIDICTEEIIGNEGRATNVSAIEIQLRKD

[6] = molecular target: T2, Mth10b T77R T77R (Methanobacterium thermoautotrophicum ΔH) (UniProt O27527); experiment: SPR; conditions: SPR (BIAcore 3000, SA chip): 20 mM Tris, 1 mM EDTA, 0.005% Tween20, pH 7.5, with 0, 0.1 or 0.3 M NaCl, 25°C
T2 sequence: T1 sequence with K11N, R39I

[7] = molecular target: T3, Mth10b wild type (Methanobacterium thermoautotrophicum ΔH) (UniProt O27527); experiment: SPR; conditions: SPR (BIAcore 3000, SA chip): 20 mM Tris, 1 mM EDTA, 0.005% Tween20, pH 7.5, with 0, 0.1 or 0.3 M NaCl, 25°C
T3 sequence: T1 sequence with K11N, R39I, R77T

[8] = molecular target: the molecule itself; experiment: crystal structure; purified Mth10b at ~10 mg/ml in 10 mM HEPES pH 7.2, 150 mM NaCl; hanging drop at 4°C over 0.1 M NaCl, 1.6 M (NH4)2SO4, 0.1 M HEPES pH 7.5; 2.2 Å; dimer formed about a crystallographic two-fold axis
[9] = 0.1 M NaCl, slight cooperativity

110 bp mth10b fragment was tested, and the Kd [1, 9] was 0.7 µM, the fold decrease in affinity (fold lower affinity than in 0.1 M NaCl) ([1]; 0.3 M NaCl, high cooperativity) was 70 and the Kd [2, 9] was 6.5 µM. For the same molecule, the Kd ([2]; no NaCl, apparent KD) was 0.26 µM, the Kd ([3]; 0.1 M NaCl, marked cooperativity) was 30 µM and the Kd ([3]; no NaCl, apparent KD) was 2.1 µM. For the same molecule, the Kd [4] was 16 µM.

In the case of “GTGATGTCAGAGGAGAATGTAGTATACATCGGAAACAAGCCTGTAATGAACTATGTTCTGGCCGTGGTTACTCAGATGAACGGTGGGACCAGTGAAGTGATCCTTAAAGC (double strand) [110 bp mth10b fragment]”, the Kd [5] is reported as 0.7 µM, the Kd [6] is reported as 16 µM and the binding [7] is reported as “no binding”.

B1: Mth10b from Methanobacterium thermoautotrophicum ΔH (natural protein, UniProt O27527 1-91, looked up)
chain: T1 sequence with K11N, R39I, R77T
notes: Mth10b, atypical Sac10b (Alba) family member of Methanobacterium thermoautotrophicum ΔH, gene mth10b (MTH1483); 91 residues in total, C-terminal residue Asp91; expressed from pET11a-mth10b; the structure model covers 86 of the 91 residues; also called wild type Mth10b; source: E. coli BL21 (DE3), purified
With B1 the “stoichiometry N” value [8] was 2.
